Reference: PMC3185441

Experiments:
Assay in all cases: fluorescence protection assay
alpha-fetoprotein (AFP) = biological target: T1, alpha-fetoprotein (AFP) (UniProt P02771 19-609)
T1 sequence: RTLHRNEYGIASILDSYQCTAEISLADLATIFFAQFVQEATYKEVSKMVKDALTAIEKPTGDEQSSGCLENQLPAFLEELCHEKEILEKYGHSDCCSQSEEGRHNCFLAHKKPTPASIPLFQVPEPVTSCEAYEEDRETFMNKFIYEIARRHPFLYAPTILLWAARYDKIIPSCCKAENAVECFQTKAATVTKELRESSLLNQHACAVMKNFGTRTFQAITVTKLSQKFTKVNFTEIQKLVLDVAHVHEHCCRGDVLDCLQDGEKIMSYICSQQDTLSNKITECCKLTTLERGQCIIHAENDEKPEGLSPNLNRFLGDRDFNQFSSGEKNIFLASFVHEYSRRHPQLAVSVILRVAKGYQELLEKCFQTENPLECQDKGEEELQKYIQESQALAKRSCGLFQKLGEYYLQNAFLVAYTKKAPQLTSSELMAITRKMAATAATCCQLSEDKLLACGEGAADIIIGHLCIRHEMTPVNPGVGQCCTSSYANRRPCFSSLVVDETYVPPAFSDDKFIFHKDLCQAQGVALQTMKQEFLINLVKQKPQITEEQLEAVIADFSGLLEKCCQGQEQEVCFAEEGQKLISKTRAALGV

[1] = biological target: Carcinoembryonic antigen (CEA) (UniProt P06731 35-685)
Sequence of Carcinoembryonic antigen (CEA) (P06731 35-685): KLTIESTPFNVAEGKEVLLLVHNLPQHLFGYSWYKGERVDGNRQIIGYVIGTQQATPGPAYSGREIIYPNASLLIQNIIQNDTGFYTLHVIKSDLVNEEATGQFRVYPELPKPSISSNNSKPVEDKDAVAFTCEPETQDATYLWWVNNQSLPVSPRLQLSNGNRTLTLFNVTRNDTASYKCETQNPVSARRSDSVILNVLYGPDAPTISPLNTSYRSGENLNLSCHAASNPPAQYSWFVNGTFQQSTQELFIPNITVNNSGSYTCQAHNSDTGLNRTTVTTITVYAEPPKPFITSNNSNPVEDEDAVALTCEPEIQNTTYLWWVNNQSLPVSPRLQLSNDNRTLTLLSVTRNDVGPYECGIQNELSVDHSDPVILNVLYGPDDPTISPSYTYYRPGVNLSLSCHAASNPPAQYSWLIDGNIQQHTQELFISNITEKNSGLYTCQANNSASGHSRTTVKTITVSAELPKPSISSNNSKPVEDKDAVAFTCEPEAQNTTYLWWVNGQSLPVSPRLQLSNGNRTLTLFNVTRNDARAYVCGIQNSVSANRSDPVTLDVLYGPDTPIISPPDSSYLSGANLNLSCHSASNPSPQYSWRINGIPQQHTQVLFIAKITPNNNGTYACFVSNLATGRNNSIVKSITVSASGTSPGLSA

Thrombin = Thrombin (UniProt P00734;P00734 328-363;364-622)

Measured: binding result

GCGCGGGGCACGTTTATCCGTCCCTCCTAGTGGCGTGCCCCGCGC (structured_DNA, FITC-modified T at Site 1 (position only in Fig 2A)) [IgE aptamer, FITC at Site 1]
no binding: all assays above
